Key:
Cyno CD33 full length = target: T1, Cyno CD33 full length (cynomolgus monkey); assay: flow cytometry on HEK293F cells expressing cyno CD33
T1 construct: Stably expressed on HEK293F cells by lentiviral transduction; also called Cyno CD33 (on HEK293F cells)
Protocol: (§1) The purified antibodies were assessed for binding to stably transfected HEK293F cells expressing human CD33 or cyno CD33 (generation described above) along with the parental HEK293F as negative control. Cells were harvested from tissue culture flasks using non-enzymatic dissociation buffer (Thermo Scientific). The flasks were rinsed twice with PBS and dissociation buffer was added to the flask, and the flask was incubated for 10 minutes at 37° C. until the cells became non-adherent. The cells were centrifuged at 300 g for 5 minutes and resuspended at 1.0×10⁶ cells/ml in staining buffer (Becton Dickinson; Franklin Lakes, N.J.). 50,000 cells/well of each cell type was plated in 50 μl of staining buffer in round bottom plates (Becton Dickinson). 50 μl of 2× concentration test mAb or isotype control was added at 3 dilutions and zero (120 nM, 12 nM, and 1.2 nM and 0 nM), and the resultant solution was incubated 30 min at 4° C. 100 μl staining buffer was added to all wells of each plate, the plates were spun at 300 g for 5 min, the buffer was removed, 200 μl staining buffer was added to all wells of each plate, the plates were spun at 300 g for 5 min, and the buffer was removed. 50 μl of 2 μg/ml of Goat-anti-human Fc AF647 secondary antibody (Jackson Immunoresearch; West Grove, Pa.) was added to all wells of the plates, and the plates were incubated for 30 min at 4° C. 100 μl staining buffer was added to all wells of the plates, the plates were spun at 300 g for 5 min, and the buffer was removed. 200 μl running buffer (running buffer is Staining buffer, 1 mM EDTA, 0.1% Pluronic Acid) was added to all wells of the plates, the plates were spun at 300 g for 5 min, and the buffer was removed. 30 ul running buffer containing Sytox Green live/dead dye (ThermoFisher) was added to all wells with cells and the plates were read on an iQue IntelliCyt flow cytometer. Cells were gated on forward vs. side scatter to eliminate debris, then on singlets and then on live cells which excluded the Sytox stain. Antibody binding was assessed by the mean fluorescence intensity in the AF647 channel. […]

Human CD33 full length = target: T2, Human CD33 full length (human, UniProt P20138 18-364); assay: flow cytometry on HEK293F cells expressing human CD33
T2 construct: Stably expressed on HEK293F cells by lentiviral transduction; also called Human CD33 (on HEK293F cells)
T2 sequence (P20138 18-364 limits assumed): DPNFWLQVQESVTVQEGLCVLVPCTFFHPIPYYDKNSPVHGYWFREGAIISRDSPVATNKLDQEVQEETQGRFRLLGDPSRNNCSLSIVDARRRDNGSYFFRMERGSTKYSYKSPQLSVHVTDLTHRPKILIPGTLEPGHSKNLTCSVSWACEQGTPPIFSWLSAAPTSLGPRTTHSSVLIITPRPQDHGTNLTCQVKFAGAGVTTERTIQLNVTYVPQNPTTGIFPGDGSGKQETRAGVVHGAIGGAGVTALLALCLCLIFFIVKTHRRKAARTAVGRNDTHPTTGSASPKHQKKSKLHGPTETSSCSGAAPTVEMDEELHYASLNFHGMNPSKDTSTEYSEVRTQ
Protocol: as §1

human CD33 = human CD33 (human, UniProt P20138 18-364); assay: cell-based or functional assay
human CD33, sequence (P20138 18-364 limits assumed): as above

T1 sequence (chain, as listed by the source limits assumed): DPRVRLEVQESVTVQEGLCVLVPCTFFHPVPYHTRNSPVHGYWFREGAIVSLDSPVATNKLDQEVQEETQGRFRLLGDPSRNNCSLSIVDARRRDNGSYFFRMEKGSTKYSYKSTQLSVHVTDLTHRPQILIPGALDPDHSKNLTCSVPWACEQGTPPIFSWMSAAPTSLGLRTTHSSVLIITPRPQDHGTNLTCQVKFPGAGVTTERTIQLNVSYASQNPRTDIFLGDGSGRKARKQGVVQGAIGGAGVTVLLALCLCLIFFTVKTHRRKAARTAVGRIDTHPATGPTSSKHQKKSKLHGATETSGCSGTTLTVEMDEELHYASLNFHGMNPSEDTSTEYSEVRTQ

Row | Binder | mean fluorescence intensity at 0.6 nM mAb (Cyno CD33 full length) [MFI] | mean fluorescence intensity at 6 nM mAb (Cyno CD33 full length) [MFI] | mean fluorescence intensity at 60 nM mAb (Cyno CD33 full length) [MFI] | mean fluorescence intensity at 0.6 nM mAb (Human CD33 full length) [MFI] | mean fluorescence intensity at 6 nM mAb (Human CD33 full length) [MFI] | mean fluorescence intensity at 60 nM mAb (Human CD33 full length) [MFI] | Cytotoxicity EC50 (nM), T-cell mediated cytotoxicity of MOLM-13 (human CD33) [nM]
1 | C33B909 (antibody, V domains shown, OMNIMouse mAb; HC C33H249, LC C33L115 (same IDs as C33B901); the campaign was cloned into both IgG1 and IgG4 PAA) VH: EVQLVESGGGLVQPGRSLRLSCVASGFTFDDYAIHWVRQAPGKGLEWVSGLSWNGGNIGYADSVKGRFTISRDNAKNSLYLQMNSLKTEDTAFYYCTKDTPYGDYFDYWGQGTLVTVSS VL: DIQMTQSPSSVWASVGDRVTITCRASQGISSWLAWYQQQPGKAPNLLIYRSSSLQSGVPSRFSGSGSGTDFTLTISSLQPEDFATYYCQQDNSFPYTFGQGTKLEIKR | 116 | 135 | 180 | 154 | 170 | 176 | 
2 | C33B910 (antibody, V domains shown, OMNIMouse mAb; HC C33H250, LC C33L116 (same IDs as C33B902)) VH: EVQLVESGGGLVQPGRSLRLSCAGSGFTFDDYAIHWVRQAPGKGLEWVSGLSWNGGNIGYADSVKGRFTISRDNAKNSLYLQLNSLKTEDTAFYYCAKDSPYGDYFDYWGQGTLVTVSS VL: DIQMTQSPSSEWASVGDRVTITCRASQGISSWLAWYQQKPGKAPKLLIYGASSWQSGVPSRFSGSGSGTDFTLTISSLQPEDFATYYCQQDNSFPYTFGQGTKLEIKR | 117 | 135 | 202 | 151 | 183 | 214 | 
3 | C3CB8 (bispecific antibody, human IgG4 S228P, lambda, F234A L235A) heavy 1: not shown light 1: SYELTQPPSVSVSPGQTASITCSGHKLGDKYACWYQQKPGQSPVVVIYKDSKRPSGIPERFSGSNFGNTATLTISGTQAMDEADYYCQAWDSSTVVFGGGTKLTVLGQPKAAPSVTLFPPSSEELQANKATLVCLISDFYPGAVTVAWKADSSPVKAGVETTTPSKQSNNKYAASSYLSLTPEQWKSHRSYSCQVTHEGSTVEKTVAPTECS heavy 2: EVQLVESGGGLVQPGGSLRLSCAASGFTFNTYAMNWVRQAPGKGLEWVARIRSKYNNYATYYAASVKGRFTISRDDSKNSLYLQMNSLKTEDTAVYYCARHGNFGNSYVSWFAYWGQGTLVTVSSASTKGPSVFPLAPCSRSTSESTAALGCLVKDYFPEPVTVSWNSGALTSGVHTFPAVLQSSGLYSLSSVVTVPSSSLGTKTYTCNVDHKPSNTKVDKRVESKYGPPCPPCPAPEAAGGPSVFLFPPKPKDTLMISRTPEVTCVVVDVSQEDPEVQFNWYVDGVEVHNAKTKPREEQFNSTYRVVSVLTVLHQDWLNGKEYKCKVSNKGLPSSIEKTISKAKGQPREPQVYTLPPSQEEMTKNQVSLTCLVKGFYPSDIAVEWESNGQPENNYKTTPPVLDSDGSFLLYSKLTVDKSRWQEGNVFSCSVMHEALHNHYTQKSLSLSLGK light 2: QTVVTQEPSLTVSPGGTVTLTCRSSTGAVTTSNYANWVQQKPGQAPRGLIGGTNKRAPGTPARFSGSLLGGKAALTLSGVQPEDEAEYYCALWYSNLWVFGGGTKLTVLGQPKAAPSVTLFPPSSEELQANKATLVCLISDFYPGAVTVAWKADSSPVKAGVETTTPSKQSNNKYAASSYLSLTPEQWKSHRSYSCQVTHEGSTVEKTVAPTECS |  |  |  |  |  |  | 0.513
4 | C3CB10 (bispecific antibody, human IgG4 S228P, lambda, F234A L235A) heavy 1: not shown light 1: SYELTQPPSVSVSPGQTASITCSGDKLGDKYACWYQQKPGQSPVVVIYQDRKRPSGIPERFSGSNFGNTATLTISGTQAMDEADYYCQAWDSSTVVFGGGTKLTVLGQPKAAPSVTLFPPSSEELQANKATLVCLISDFYPGAVTVAWKADSSPVKAGVETTTPSKQSNNKYAASSYLSLTPEQWKSHRSYSCQVTHEGSTVEKTVAPTECS heavy 2: EVQLVESGGGLVQPGGSLRLSCAASGFTFNTYAMNWVRQAPGKGLEWVARIRSKYNNYATYYAASVKGRFTISRDDSKNSLYLQMNSLKTEDTAVYYCARHGNFGNSYVSWFAYWGQGTLVTVSSASTKGPSVFPLAPCSRSTSESTAALGCLVKDYFPEPVTVSWNSGALTSGVHTFPAVLQSSGLYSLSSVVTVPSSSLGTKTYTCNVDHKPSNTKVDKRVESKYGPPCPPCPAPEAAGGPSVFLFPPKPKDTLMISRTPEVTCVVVDVSQEDPEVQFNWYVDGVEVHNAKTKPREEQFNSTYRVVSVLTVLHQDWLNGKEYKCKVSNKGLPSSIEKTISKAKGQPREPQVYTLPPSQEEMTKNQVSLTCLVKGFYPSDIAVEWESNGQPENNYKTTPPVLDSDGSFLLYSKLTVDKSRWQEGNVFSCSVMHEALHNHYTQKSLSLSLGK light 2: QTVVTQEPSLTVSPGGTVTLTCRSSTGAVTTSNYANWVQQKPGQAPRGLIGGTNKRAPGTPARFSGSLLGGKAALTLSGVQPEDEAEYYCALWYSNLWVFGGGTKLTVLGQPKAAPSVTLFPPSSEELQANKATLVCLISDFYPGAVTVAWKADSSPVKAGVETTTPSKQSNNKYAASSYLSLTPEQWKSHRSYSCQVTHEGSTVEKTVAPTECS |  |  |  |  |  |  | 0.473
5 | C33B914 (antibody, V domains shown, OMNIMouse mAb; HC C33H254, LC C33L120 (same IDs as C33B906); also called C33F552) VH: QVQLVESGGGVVQPGRSLRLSCAASGFTFSYYGMHWVRQAPDKGLEWVAVIWFDGNNKYYADSVKGRFTISRDNSKNTLYLQMNSLRAEDTAVYYCARDRELLFDYWGQGTLVTVSS VL: SYELTQPPSVSVSPGQTASITCSGDELGDMYACWYQQKPGQSPLVVIYQDSKRPSGIPERFSGSNSGNTATLTISGTQAMDEAAYYCQTWDTRIAVFGGGTNLTVLG | 22100 | 33400 | 45000 | 153000 | 315000 | 304000 | 
6 | C33B913 (antibody, V domains shown, OMNIMouse mAb; HC C33H253, LC C33L119 (same IDs as C33B905); also called C33F551) VH: EVQLLESGGGLVQPGGSLKLSCTASGFTFRSYAMSWVRQAPGKGLEWVSAINGYGDGRYYADSVKGRFTISRDNSKNTLYLQMNSLRAEDTAVYSCAKDQGFGELFFDYWGQGTLVTVSS VL: not shown | 35200 | 36900 | 40700 | 205000 | 409000 | 519000 | 
7 | C33B915 (antibody, V domains shown, OMNIMouse mAb; HC C33H255, LC C33L121 (same IDs as C33B907); also called C33F553) VH: EVQLVESGGGLVQPGRSLRLSCAASGFTFDDYAMHWVRQVPGEGLEWVSGISWNGGDMVYADSVKGRFTISRDNAKNSLYLQMNSLRPEDTALYYCVKDMPYFDFLTGSDYYYYGMDVWGQGTTVTVSS VL: SYELTQPPSVSVSPGQTASITCSGDNLGNEHVCWYHQKPGQSPVLVIYQNNKRPSGIPERFSGSNSGNTATLSISGTQATDEADYYCQAWDSTTAVFGGGTKLTVLG | 36200 | 35700 | 37500 | 138000 | 363000 | 390000 | 

Source: patent publication US20190382481A1 (Janssen / Centocor, published 2019)
